Source: patent publication US20150216972A1 (SAMSUNG ELECTRONICS, published 2015)
Values belong to the binder of their own block, whether it stands above or below them.

Columns and labels:
EGFR (R&D Systems) = target: T1, EGFR (R&D Systems) (UniProt P00533 25-645, limits assumed); test: SPR, Biacore T100
T1 construct: also called epidermal growth factor receptor

[1] = target: T2, human c-Met/Fc fusion protein (R&D Systems) (human, UniProt P08581 25-932); test: ELISA, human c-Met/Fc coated at 2 ug/mL, hybridoma culture supernatant
T2 construct: Bought reagent; also called human c-Met/Fc protein; not shown: Fc part of the bought fusion
T2 sequence (P08581 25-932 limits assumed): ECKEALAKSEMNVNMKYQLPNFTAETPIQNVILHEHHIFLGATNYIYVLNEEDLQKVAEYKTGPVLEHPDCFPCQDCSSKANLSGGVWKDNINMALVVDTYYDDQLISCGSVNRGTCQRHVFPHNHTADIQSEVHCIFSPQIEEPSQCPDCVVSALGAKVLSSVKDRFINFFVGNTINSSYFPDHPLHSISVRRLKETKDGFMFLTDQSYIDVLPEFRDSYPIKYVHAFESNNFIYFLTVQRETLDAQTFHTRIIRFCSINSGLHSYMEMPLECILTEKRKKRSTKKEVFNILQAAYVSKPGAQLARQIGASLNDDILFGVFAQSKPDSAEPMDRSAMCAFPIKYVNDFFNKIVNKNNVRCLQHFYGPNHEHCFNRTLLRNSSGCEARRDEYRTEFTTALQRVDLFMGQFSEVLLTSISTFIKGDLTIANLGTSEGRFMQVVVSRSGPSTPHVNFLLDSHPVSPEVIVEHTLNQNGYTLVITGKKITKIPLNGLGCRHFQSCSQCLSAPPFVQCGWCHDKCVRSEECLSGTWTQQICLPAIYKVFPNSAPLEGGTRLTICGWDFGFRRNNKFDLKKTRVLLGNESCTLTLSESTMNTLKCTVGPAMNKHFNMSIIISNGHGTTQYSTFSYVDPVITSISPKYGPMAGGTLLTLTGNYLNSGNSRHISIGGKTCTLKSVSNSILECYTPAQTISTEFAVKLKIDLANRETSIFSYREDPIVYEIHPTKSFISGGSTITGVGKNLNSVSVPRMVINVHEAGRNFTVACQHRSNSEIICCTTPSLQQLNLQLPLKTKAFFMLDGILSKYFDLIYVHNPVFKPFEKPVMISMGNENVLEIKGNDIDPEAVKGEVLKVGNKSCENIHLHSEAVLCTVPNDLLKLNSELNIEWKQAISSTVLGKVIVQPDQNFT
Procedure: Human c-Met/Fc fusion protein was seeded in an amount of 50 μL (2 μg/mL)/well to microtiter plates and allowed to adhere to the surface of each well. The antibody that remained unbound was removed by washing.
The hybridoma cell culture obtained in Reference Example 1.1.2 was added in an amount of 50 μL to each well of the plates and incubated for 1 hour. The cells remaining unreacted were washed out with a sufficient amount of Tris-buffered saline and Tween 20 (TBST). Goat anti-mouse IgG-horseradish peroxidase (HRP) was added to the plates and incubated for 1 hour at room temperature. The plates were washed with a sufficient amount of TBST, followed by reacting the peroxidase with a substrate (OPD). Absorbance at 450 nm was measured on an ELISA reader.

- Kd (EGFR (R&D Systems)): ~0.35 nM
B1: ME-19, bispecific anti-c-Met/anti-EGFR antibody (anti-c-Met antibody L3-1Y / anti-EGFR DARPin conjugate) (bispecific antibody, human IgG2, kappa)
heavy: EVQLVESGGGLVQPGGSLRLSCAASGFTFTDYYMSWVRQAPGKGLEWLGFIRNKANGYTTEYSASVKGRFTISRDNSKNTLYLQMNSLRAEDTAVYYCARDNWFAYWGQGTLVTVSSASTKGPSVFPLAPCSRSTSESTAALGCLVKDYFPEPVTVSWNSGALTSGVHTFPAVLQSSGLYSLSSVVTVPSSNFGTQTYTCNVDHKPSNTKVDKTVERKCCVECPPCPAPPVAGPSVFLFPPKPKDTLMISRTPEVTCVVVDVSHEDPEVQFNWYVDGVEVHNAKTKPREEQFNSTFRVVSVLTVVHQDWLNGKEYKCKVSNKGLPAPIEKTISKTKGQPREPQVYTLPPSREEMTKNQVSLTCLVKGFYPSDIAVEWESNGQPENNYKTTPPMLDSDGSFFLYSKLTVDKSRWQQGNVFSCSVMHEALHNHYTQKSLSLSPGKGGGGSGGGGSDLGKKLLEAARAGQDDEVRILMANGADVNADDTWGWTPLHLAAYQGHLEIVEVLLKNGADVNAYDYIGWTPLHLAADGHLEIVEVLLKNGADVNASDYIGDTPLHLAAHNGHLEIVEVLLKHGADVNAQDKFGKTAFDISIDNGNEDLAEILQ
light: DIQMTQSPSSLSASVGDRVTITCKSSQSLLASGNQNNYLAWYQQKPGKAPKMLIIWASTRVSGVPSRFSGSGSGTDFTLTISSLQPEDFATYYCQQSYSRPYTFGQGTKVEIKRTVAAPSVFIFPPSDEQLKSGTASVVCLLNNFYPREAKVQWKVDNALQSGNSQESVTEQDSKDSTYSLSSTLTLSKADYEKHKVYACEVTHQGLSSPVTKSFNRGEC
notes: also called c-Met/EGFR bsAb

- binding result [1]: binds
B2: AbF46, mouse monoclonal antibody to c-Met (antibody, V domains shown)
VH: EVKLVESGGGLVQPGGSLRLSCATSGFTFTDYYMSWVRQPPGKALEWLGFIRNKANGYTTEYSASVKGRFTISRDNSQSILYLQMDTLRAEDSATYYCARDNWFAYWGQGTLVTVSA
VL: DILMTQSPSSLTVSAGEKVTMSCKSSQSLLASGNQNNYLAWHQQKPGRSPKMLIIWASTRVSGVPDRFIGSGSGTDFTLTINSVQAEDLAVYYCQQSYSAPLTFGAGTKLELK
notes: Screened as hybridoma culture supernatant; also called monoclonal antibody of hybridoma KCLRF-BP-00220
